The text below walks through data of paper PMC5573372, “Solvent Assisted Tuning of Morphology of a Peptide-Perylenediimide Conjugate: Helical Fibers to Nano-Rings and their Differential Semiconductivity” (Scientific Reports, 2017).

This data set is described as follows: Solubility of P-1 in water and THF. The note with it: method not described. The format is physicochemical.

Structures are written as SMILES.

For the compound `O=C(O)[C@H](Cc1ccccc1)NC(=O)[C@H](Cc1ccccc1)N1C(=O)c2ccc3c4ccc5c6c(ccc(c7ccc(c2c37)C1=O)c64)C(=O)N([C@@H](Cc1ccccc1)C(=O)N[C@@H](Cc1ccccc1)C(=O)O)C5=O` [P-1], the “solubility in THF” value (THF (good solvent)) was ~ 0.1 mM. The solubility (in general, the concentration that dissolves in the medium under given conditions) (water (poor solvent)) is < 0.1 µM.
